Consider 2 molecules from PMC6192259 (Molecular cell, 2017).

One experiment concerns the target Dim1 (yeast, UniProt P41819 1-318). Kind of experiment: pull-down.
The target of the next experiment is MBP-Dim1 (yeast, UniProt P41819 1-318). Kind of experiment: pull-down.
Chain of MBP-Dim1 (P41819 whole entry): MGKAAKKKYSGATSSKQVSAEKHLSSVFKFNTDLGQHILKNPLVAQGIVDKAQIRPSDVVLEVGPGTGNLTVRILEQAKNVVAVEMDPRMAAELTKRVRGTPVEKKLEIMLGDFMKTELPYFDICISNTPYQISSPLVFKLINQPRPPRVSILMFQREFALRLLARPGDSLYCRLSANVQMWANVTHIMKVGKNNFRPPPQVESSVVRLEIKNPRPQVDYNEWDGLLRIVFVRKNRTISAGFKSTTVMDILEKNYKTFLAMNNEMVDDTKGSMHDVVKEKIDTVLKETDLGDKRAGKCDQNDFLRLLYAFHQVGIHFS

Chain of Dim1 (P41819 whole entry): as above

B1: MBP-Fap7 (enzyme, yeast, UniProt Q12055 1-197, looked up)
chain: MEARRYGPNIIVTGTPGCGKSSTCEFLKNKLKDYKYYNISDFAKDNDCFEGYDEGRKSHIVDEDKLLDMLEPLLRQGNSIVDWHVNDVFPERLIDLVVVLRCDNSNLYSRLHARGYHDSKIEENLDAEIMGVVKQDAVESYEPHIVVELQSDTKEDMVSNVSRIVAWEKMWLEQHPDGVTNEYQGPRSDDEDDEDSE
For B1, the binding result with Dim1 is “binds”.

B2: Fap7 (enzyme, yeast, UniProt Q12055 1-197, looked up)
chain: B1 chain
With B2, the binding result with MBP-Dim1 was “binds”.
